Data on 1 molecule can be found in paper PMC6321010, “Interaction of the GTPase Elongation Factor Like-1 with the Shwachman-Diamond Syndrome Protein and Its Missense Mutations” (International Journal of Molecular Sciences, 2018).

Residue numbers refer to the chain shown, from its start.

Test in all cases: fluorescence polarisation; fluorescence anisotropy; 2 µL additions of 40-90 µM human EFL1 titrated into 300 µL of 0.1 µM Lumio Green-labelled human SBDS-FlAsH construct; 25 °C; 50 mM Tris-HCl pH 8, 300 mM NaCl, 5 mM β-mercaptoethanol; fitted to a single-site or a two different binding sites model
Conditions in all cases: both partners purified

Assay [1] has as its target T1, human SBDS wild type with C-terminal FlAsH tag, labelled with Lumio Green (human, UniProt Q9Y3A5 1-250, Lumio Green dye (4',5'-bis(1,3,2-dithioarsolan-2-yl) fluorescein) on the C-terminal FlAsH tag).
T1 construct: human SBDS, wild type, called the full-length protein; also called SBDS-FlAsH; Shwachman-Bodian-Diamond Syndrome protein; source: E. coli C41 (pRSET plasmid), purified by conventional chromatographic techniques; not shown: FlAsH tag (Cys-Cys-Pro-Gly-Cys-Cys), C-terminal, kept
T1 sequence (looked up): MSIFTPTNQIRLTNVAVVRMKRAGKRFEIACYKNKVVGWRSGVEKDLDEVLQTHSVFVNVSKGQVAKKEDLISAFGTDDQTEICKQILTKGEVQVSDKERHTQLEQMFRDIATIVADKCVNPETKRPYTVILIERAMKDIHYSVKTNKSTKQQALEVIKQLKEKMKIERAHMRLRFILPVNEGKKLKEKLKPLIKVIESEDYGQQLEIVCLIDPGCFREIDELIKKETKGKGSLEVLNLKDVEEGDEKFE

The target of assay [2] is T2, human SBDS R19Q with C-terminal FlAsH tag, labelled with Lumio Green (human, UniProt Q9Y3A5 1-250, R19Q, Lumio Green dye (4',5'-bis(1,3,2-dithioarsolan-2-yl) fluorescein) on the C-terminal FlAsH tag).
T2 construct: human SBDS, SDS disease surface missense variant R19Q (domain 1), in the three-domain protein; Missense variant found in patients; source: E. coli C41 (pRSET plasmid), purified by conventional chromatographic techniques; not shown: FlAsH tag (Cys-Cys-Pro-Gly-Cys-Cys), C-terminal, kept
T2 sequence (looked up): T1 sequence (looked up) with R19Q

The target in assay [3] is T3, human SBDS I167T with C-terminal FlAsH tag, labelled with Lumio Green (human, UniProt Q9Y3A5 1-250, I167T, Lumio Green dye (4',5'-bis(1,3,2-dithioarsolan-2-yl) fluorescein) on the C-terminal FlAsH tag).
T3 construct: human SBDS, SDS disease surface missense variant I167T (domain 2), in the three-domain protein; Missense variant found in patients; source: E. coli C41 (pRSET plasmid), purified by conventional chromatographic techniques; not shown: FlAsH tag (Cys-Cys-Pro-Gly-Cys-Cys), C-terminal, kept
T3 sequence (looked up): T1 sequence (looked up) with I167T

Assay [4] has as its target T4, human SBDS R175W with C-terminal FlAsH tag, labelled with Lumio Green (human, UniProt Q9Y3A5 1-250, R175W, Lumio Green dye (4',5'-bis(1,3,2-dithioarsolan-2-yl) fluorescein) on the C-terminal FlAsH tag).
T4 construct: Missense variant found in patients; source: E. coli C41 (pRSET plasmid), purified by conventional chromatographic techniques; not shown: FlAsH tag (Cys-Cys-Pro-Gly-Cys-Cys), C-terminal, kept
T4 sequence (looked up): T1 sequence (looked up) with R175W

B1: human Elongation Factor Like-1 (EFL1) (enzyme)
chain: MVLNSLDKMIQLQKNTANIRNICVLAHVDHGKTTLADCLISSNGIISSRLAGKLRYMDSREDEQIRGITMKSSAISLHYATGNEEYLINLIDSPGHVDFSSEVSTAVRICDGCIIVVDAVEGVCPQTQAVLRQAWLENIRPVLVINKIDRLIVELKFTPQEAYSHLKNILEQINALTGTLFTSKVLEERAERETESQVNPNSEQGEQVYDWSTGLEDTDDSHLYFSPEQGNVVFTSAIDGWGFGIEHFARIYSQKIGIKKEVLMKTLWGDYYINMKAKKIMKGDQAKGKKPLFVQLILENIWSLYDAVLKKDKDKIDKIVTSLGLKIGAREARHSDPKVQINAICSQWLPISHAVLAMVCQKLPSPLDITAERVERLMCTGSQTFDSFPPETQALKAAFMKCGSEDTAPVIIFVSKMFAVDAKALPQNKPRPLTQEEIAQRRERARQRHAEKLAAAQGQAPLEPTQDGSAIETCPKGEEPRGDEQQVESMTPKPVLQEENNQESFIAFARVFSGVARRGKKIFVLGPKYSPLEFLRRVPLGFSAPPDGLPQVPHMAYCALENLYLLMGRELEYLEEVPPGNVLGIGGLQDFVLKSATLCSLPSCPPFIPLNFEATPIVRVAVEPKHPSEMPQLVKGMKLLNQADPCVQILIQETGEHVLVTAGEVHLQRCLDDLKERFAKIHISVSEPIIPFRETITKPPKVDMVNEEIGKQQKVAVIHQMKEDQSKIPEGIQVDSDGLITITTPNKLATLSVRAMPLPEEVTQILEENSDLIRSMEQLTSSLNEGENTHMIHQKTQEKIWEFKGKLEQHLTGRRWRNIVDQIWSFGPRKCGPNILVNKSEDFQNSVWTGPADKASKEASRYRDLGNSIVSGFQLATLSGPMCEEPLMGVCFVLEKWDLSKFEEQGASDLAKEGQEENETCSGGNENQELQDGCSEAFEKRTSQKGESPLTDCYGPFSGQLIATMKEACRYALQVKPQRLMAAMYTCDIMATGDVLGRVYAVLSKREGRVLQEEMKEGTDMFIIKAVLPVAESFGFADEIRKRTSGLASPQLVFSHWEIIPSDPFWVPTTEEEYLHFGEKADSENQARKYMNAVRKRKGLYVEEKIVEHAEKQRTLSKNK
notes: human EFL1, GTPase, said to comprise 1120 residues; the expressed protein is fused to a TEV recognition site and a hexahistidine tag at the C-terminus; also called human EFL1; GTPase Elongation Factor Like-1; source: S. cerevisiae BCY123 (pRS426 backbone, GAL1/10 promoter), purified
Turning to B1, the “Kd1 (first binding site, two different binding sites model)” value in assay [1] turned out to be 5.4 ± 1 µM; in assay [2], 4.2 ± 0.5 µM; in assay [3] it was 10 ± 3 µM; in assay [4] it was 12 ± 4 µM. Further, the “Kd2 (second binding site, two different binding sites model)” value in assay [1] came to 0.4 ± 0.04 µM; in assay [2], 5.2 ± 0.3 µM; in assay [3] it was 1.4 ± 0.2 µM; in assay [4], 3.3 ± 0.6 µM.
